In PMC10397247 one finds interaction score data, which are given here for eight molecules.

Experiment in all cases: two-hybrid library CCNG1;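 note: natural log of median RNA to DNA barcode read ratio; higher means stronger binding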
For experiment [1], the target named is T1, 4H932-bA.
T1 chain: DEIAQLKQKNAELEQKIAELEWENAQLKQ

Experiment [2] concerns the target T2, 4H796-bA.
T2 chain: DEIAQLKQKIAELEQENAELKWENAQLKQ

Experiment [3] deals with T3, 4H949-bA.
T3 chain: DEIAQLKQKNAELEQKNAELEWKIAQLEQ

Experiment [4] deals with T4, O3-bS.
T4 chain: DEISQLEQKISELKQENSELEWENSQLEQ

For experiment [5], the target named is T5, 4H949-bH.
T5 chain: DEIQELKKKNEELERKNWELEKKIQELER

The target of experiment [6] is T6, 4H56-bH.
T6 chain: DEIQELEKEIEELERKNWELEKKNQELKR

In experiment [7] the target is T7, 4H796-bH.
T7 chain: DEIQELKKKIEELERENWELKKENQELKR

In experiment [8] the target is T8, 4H2931-bH.
T8 chain: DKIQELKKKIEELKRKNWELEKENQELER

Experiment [9] concerns the target T9, 4H932-bH.
T9 chain: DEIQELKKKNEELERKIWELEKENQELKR

For experiment [10], the target named is T10, 4H4001-bH.
T10 chain: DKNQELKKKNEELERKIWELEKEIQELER

For experiment [11], the target named is T11, 4H3364-bH.
T11 chain: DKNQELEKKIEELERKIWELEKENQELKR

Experiment [12] deals with T12, 4H730-bH.
T12 chain: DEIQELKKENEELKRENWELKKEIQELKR

Experiment [13] addresses T13, 4H2585-bH.
T13 chain: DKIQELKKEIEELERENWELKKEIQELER

Experiment [14] concerns the target T14, 4H3041-bH.
T14 chain: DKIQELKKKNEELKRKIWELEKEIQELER

In experiment [15] the target is T15, 4H2760-bH.
T15 chain: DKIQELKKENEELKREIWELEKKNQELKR

Experiment [16] deals with T16, 4H3297-bH.
T16 chain: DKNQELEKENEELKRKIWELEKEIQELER

The target in experiment [17] is T17, 4H264-bH.
T17 chain: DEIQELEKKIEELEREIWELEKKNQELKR

In experiment [18] the target is T18, 4H2859-bH.
T18 chain: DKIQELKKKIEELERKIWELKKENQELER

Experiment [19] concerns the target T19, 4H349-bH.
T19 chain: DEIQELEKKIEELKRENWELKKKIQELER

For experiment [20], the target named is T20, 4H477-bN.
T20 chain: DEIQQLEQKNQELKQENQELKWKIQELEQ

The target in experiment [21] is T21, 4H3381-bH.
T21 chain: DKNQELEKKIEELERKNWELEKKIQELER

For experiment [22], the target named is T22, P9mSN.
T22 chain: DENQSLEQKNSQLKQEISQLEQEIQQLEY

The target in experiment [23] is T23, P7A-bN.
T23 chain: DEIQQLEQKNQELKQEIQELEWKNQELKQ

The target of experiment [24] is T24, P8A-bN.
T24 chain: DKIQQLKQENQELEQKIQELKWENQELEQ

Experiment [25] deals with T25, P9A-bN.
T25 chain: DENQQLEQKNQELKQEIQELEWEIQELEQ

In experiment [26] the target is T26, O2-bS.
T26 chain: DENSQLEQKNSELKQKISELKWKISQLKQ

In experiment [27] the target is T27, O5-bS.
T27 chain: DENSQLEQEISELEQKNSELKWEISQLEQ

In experiment [28] the target is T28, O8-bS.
T28 chain: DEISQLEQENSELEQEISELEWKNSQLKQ

Experiment [29] deals with T29, O4-bS.
T29 chain: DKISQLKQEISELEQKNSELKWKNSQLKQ

The target of experiment [30] is T30, O6-bS.
T30 chain: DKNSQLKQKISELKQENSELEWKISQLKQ

Experiment [31] deals with T31, O9-bS.
T31 chain: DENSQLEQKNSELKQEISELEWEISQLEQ

In experiment [32] the target is T32, O7-bS.
T32 chain: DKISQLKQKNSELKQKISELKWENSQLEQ

Experiment [33] concerns the target T33, 4H3631-bH.
T33 chain: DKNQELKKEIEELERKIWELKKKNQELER

Experiment [34] deals with T34, 4H3638-bH.
T34 chain: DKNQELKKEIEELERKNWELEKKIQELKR

The target in experiment [35] is T35, 4H3974-bH.
T35 chain: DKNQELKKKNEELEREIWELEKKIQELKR

The target in experiment [36] is T36, 4H906-bH.
T36 chain: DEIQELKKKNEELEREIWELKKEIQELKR

Experiment [37] has as its target T37, 4H850-bH.
T37 chain: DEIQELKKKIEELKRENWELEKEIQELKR

For experiment [38], the target named is T38, 4H619-bH.
T38 chain: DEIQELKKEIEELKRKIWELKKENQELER

Experiment [39] addresses T39, 4H3817-bH.
T39 chain: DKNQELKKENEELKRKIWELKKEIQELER

Experiment [40] has as its target T40, 4H584-bH.
T40 chain: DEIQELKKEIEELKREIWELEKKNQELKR

Experiment [41] has as its target T41, 4H3172-bH.
T41 chain: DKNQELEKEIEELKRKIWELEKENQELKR

Experiment [42] concerns the target T42, 4H3414-bH.
T42 chain: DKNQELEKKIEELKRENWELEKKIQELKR

In experiment [43] the target is T43, 4H570-bH.
T43 chain: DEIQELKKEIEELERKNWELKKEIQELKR

In experiment [44] the target is T44, 4H741-bN.
T44 chain: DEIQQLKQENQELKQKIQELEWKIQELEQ

Experiment [45] addresses T45, 4H3277-bN.
T45 chain: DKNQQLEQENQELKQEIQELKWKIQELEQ

Experiment [46] concerns the target T46, 4H40-bN.
T46 chain: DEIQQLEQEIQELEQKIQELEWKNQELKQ

In experiment [47] the target is T47, 4H2915-bN.
T47 chain: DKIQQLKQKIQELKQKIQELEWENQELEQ

Experiment [48] addresses T48, 4H2588-bN.
T48 chain: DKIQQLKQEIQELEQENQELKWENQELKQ

Experiment [49] has as its target T49, 4H319-bN.
T49 chain: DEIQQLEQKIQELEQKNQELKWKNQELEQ

The target in experiment [50] is T50, 4H2717-bN.
T50 chain: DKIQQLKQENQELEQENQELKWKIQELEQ

Experiment [51] deals with T51, 4H492-bN.
T51 chain: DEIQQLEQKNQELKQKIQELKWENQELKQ

In experiment [52] the target is T52, 4H348-bN.
T52 chain: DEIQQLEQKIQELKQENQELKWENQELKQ

The target in experiment [53] is T53, 4H3057-bN.
T53 chain: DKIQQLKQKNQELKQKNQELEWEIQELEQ

The target of experiment [54] is T54, 4H2692-bN.
T54 chain: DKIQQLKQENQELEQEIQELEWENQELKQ

Experiment [55] addresses T55, 4H2839-bN.
T55 chain: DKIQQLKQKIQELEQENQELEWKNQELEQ

Experiment [56] deals with T56, 4H3129-bH.
T56 chain: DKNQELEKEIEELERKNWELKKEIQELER

In the case of DEIAQLKQKIAELEQENAELKWENAQLKQ [4H796-bA], the interaction score is -0.164 in experiment [1], 0.961 in experiment [2], -0.898 in experiment [3] and -0.947 in experiment [4].

Regarding DKIQELKKEIEELERENWELKKEIQELER [4H2585-bH], the interaction score in experiment [5] was -0.693; in [6], 0.21; in experiment [7], -0.9; in experiment [8], -0.336; in experiment [9], -1.27; in experiment [10], -0.0821. Further, the interaction score is -0.536 in [11]; -0.529 in experiment [12]; -0.17 in experiment [13]; 0.00364 in experiment [14]; 0.55 in [15]; -0.417 in [16]. Also, the interaction score in experiment [17] is -0.751; in [18], 0.965; in [19], 1.63; in [20], -0.435; in experiment [21], -0.48.

With DKNQQLKQEIQELEQENQELEWKIQELKQ [P6A-bN], the interaction score in experiment [22] was -0.239; in [23], 0.204; in experiment [24] it was -0.195; in experiment [25] it was 0.0031.

Regarding DENSQLEQKNSELKQKISELKWKISQLKQ [O2-bS], the interaction score in experiment [26] was -0.754; in experiment [27], -2.56; in [28], -2.49; in experiment [29], -1.49; in experiment [30], -1.1; in experiment [31], -1.59. This molecule came in with an interaction score in [32] of -0.412.

DKNQELEKEIEELKRKIWELEKENQELKR [4H3172-bH]: the interaction score in [33] was 0.994; in [34], -0.13; in experiment [35] it was 0.353; in experiment [36], -0.821; in [37], -0.531; in experiment [38], -1.22. The interaction score in experiment [39] is -0.475; in experiment [40], -1.68; in [41], 0.448; in experiment [42] it was 0.693; in experiment [43] it was 0.871.

As for DEIQQLEQKNQELKQEIQELEWKNQELKQ [P7A-bN], the interaction score in [23] is 0.344; in [24], 2.12; in experiment [25], -1.19.

Take DKIQQLKQEIQELEQENQELKWENQELKQ [4H2588-bN]: the interaction score was 0.0254 in [44]; -0.49 in [45]; -0.648 in [46]; 0.795 in [47]; 0.138 in experiment [48]; -0.863 in [49]. In addition, the interaction score is 0.223 in [50]; -0.343 in experiment [51]; 1.49 in [52]; -1.34 in experiment [53]; -1.95 in [20]; 0.0187 in experiment [54]. Moreover, in experiment [55], the interaction score is -1.16.

Regarding DKNQELEKEIEELERKNWELKKEIQELER [4H3129-bH], the interaction score was -0.645 in [33]; -1.18 in experiment [34]; -0.348 in [35]; -0.384 in [36]; 0.17 in experiment [37]; -2.16 in experiment [56]. In addition, the interaction score in experiment [38] is -0.44; in experiment [39] it was -0.197; in experiment [40], -0.445; in [41], -0.227; in [42], 1.62; in [43], -1.61.
